Values belong to the binder of their own block, whether it stands above or below them.
Experiments:
[1] = target: T1, 4Ig B7-H3 (soluble human B7-H3 protein with 435 amino acids) (human, UniProt Q5ZPR3 27-461, limits assumed); assay: SPR, BIAcore T200, antibody amine-coupled to the chip, antigen as analyte, 1:1 Langmuir fit
T1 construct: also called 4Ig-B7H3 antigen; B7H3/4Ig
T1 sequence: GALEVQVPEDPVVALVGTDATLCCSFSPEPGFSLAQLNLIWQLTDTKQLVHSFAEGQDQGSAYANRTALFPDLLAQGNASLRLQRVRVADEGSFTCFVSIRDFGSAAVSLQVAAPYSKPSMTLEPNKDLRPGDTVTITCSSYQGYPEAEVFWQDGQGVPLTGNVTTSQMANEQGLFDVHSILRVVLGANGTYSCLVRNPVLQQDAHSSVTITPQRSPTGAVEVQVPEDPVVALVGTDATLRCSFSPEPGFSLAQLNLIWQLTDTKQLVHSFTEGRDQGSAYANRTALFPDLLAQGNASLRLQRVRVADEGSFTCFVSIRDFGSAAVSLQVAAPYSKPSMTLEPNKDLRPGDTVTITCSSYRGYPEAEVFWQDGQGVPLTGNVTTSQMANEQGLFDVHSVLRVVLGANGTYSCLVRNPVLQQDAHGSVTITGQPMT
Procedure: SPR detection was performed with BIAcore T200 (GE) system. Series Sensor Chip CMS and the amine coupling kit for immobilization were purchased from GE.
The B7-H3 antigen was diluted with HBS-EP buffer in a certain proportion to concentration gradients of 0 nM, 0.15625 nM, 0.3125 nM, 0.625 nM, 1.25 nM (two replicates), 2.5 nM, 5 nM, 10 nM, 20 nM, the flow rate was set to 30 μL/min, the binding time was set to 120 s, and the dissociation time was set to 1800 s for sample analysis. For regeneration, Gly-HCl buffer (pH 1.5) could be used as a regeneration buffer, the flow rate was set to 30 μL/min, and regeneration was performed for 30 s. The experiment adopted multi-cycle operation, for the response signal, the analysis time was set as the abscissa and the response value was set as the ordinate. The obtained data was fitted by BIAcore T200 analysis software. The fitting model used was 1:1 Langmuir binding model, and the kinetic constants such as the binding rate constant, the dissociation rate constant, and the binding and dissociation constant were determined.

[2] = target: T1, 4Ig B7-H3 (soluble human B7-H3 protein …); assay: ELISA on coated antigen, IgG1 antibody
Procedure: (§1) Protein binding: 100 μL of antigen B7-H3 (R&D) at 20 ng/ml was coated onto microplate, incubated at 2-8° C. overnight. Subsequently, 100 μL of the prepared full-length IgG1 antibody described above was added with a total of 8 concentrations started from 2000 ng/ml and serially diluted with 3-fold, incubating at 37° C., 600 rpm for 1 hour. After the plate was washed for three times, Goat anti human IgG (Fc)-HRP enzyme-linked antibody was added and the plate was shook at 37° C. and 600 rpm for 1 hour. After the plate was washed for 4 times, TMB chromogenic solution was aliquoted in and incubated for 10 minutes, then 1 mol/L […] stop solution at 100 μL/well was aliquoted to stop the reaction and the absorbance was measured.

[3] = target: T2, 2Ig B7-H3 (soluble human B7-H3 with 217 amino acids) (human, UniProt Q5ZPR3 29-463); assay: ELISA on coated antigen, IgG1 antibody
T2 construct: also called 2IgB7-H3 domain
T2 sequence: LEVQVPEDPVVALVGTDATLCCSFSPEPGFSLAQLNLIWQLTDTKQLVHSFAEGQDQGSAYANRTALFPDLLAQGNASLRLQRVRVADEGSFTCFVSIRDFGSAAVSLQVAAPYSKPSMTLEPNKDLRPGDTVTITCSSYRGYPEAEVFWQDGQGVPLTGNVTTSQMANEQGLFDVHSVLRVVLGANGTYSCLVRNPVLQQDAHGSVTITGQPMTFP
Procedure: as §1

IgV domain of B7-H3 [4] = target: T3, IgV domain of B7-H3 (human, UniProt Q5ZPR3 30-130); assay: ELISA on coated antigen, IgG1 antibody
T3 sequence: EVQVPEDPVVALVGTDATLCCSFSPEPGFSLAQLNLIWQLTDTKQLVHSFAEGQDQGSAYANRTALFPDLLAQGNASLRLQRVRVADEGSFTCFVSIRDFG
Procedure: as §1

IgC domain of B7-H3 = target: T4, IgC domain of B7-H3 (human, UniProt Q5ZPR3 141-242); assay: ELISA on coated antigen, IgG1 antibody
T4 sequence: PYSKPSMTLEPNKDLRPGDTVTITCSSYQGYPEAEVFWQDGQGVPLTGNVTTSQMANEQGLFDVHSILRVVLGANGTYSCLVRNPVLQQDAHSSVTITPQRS
Procedure: as §1

[5] = target: T5, B7-H3 on B7-H3 transfected CHO cells; assay: cell-based ELISA on B7-H3 transfected CHO-K1 cells
T5 construct: whole, on cells; also called CHO cells transfected with B7-H3
T5 sequence (Q5ZPR3 1-534, species assumed, looked up): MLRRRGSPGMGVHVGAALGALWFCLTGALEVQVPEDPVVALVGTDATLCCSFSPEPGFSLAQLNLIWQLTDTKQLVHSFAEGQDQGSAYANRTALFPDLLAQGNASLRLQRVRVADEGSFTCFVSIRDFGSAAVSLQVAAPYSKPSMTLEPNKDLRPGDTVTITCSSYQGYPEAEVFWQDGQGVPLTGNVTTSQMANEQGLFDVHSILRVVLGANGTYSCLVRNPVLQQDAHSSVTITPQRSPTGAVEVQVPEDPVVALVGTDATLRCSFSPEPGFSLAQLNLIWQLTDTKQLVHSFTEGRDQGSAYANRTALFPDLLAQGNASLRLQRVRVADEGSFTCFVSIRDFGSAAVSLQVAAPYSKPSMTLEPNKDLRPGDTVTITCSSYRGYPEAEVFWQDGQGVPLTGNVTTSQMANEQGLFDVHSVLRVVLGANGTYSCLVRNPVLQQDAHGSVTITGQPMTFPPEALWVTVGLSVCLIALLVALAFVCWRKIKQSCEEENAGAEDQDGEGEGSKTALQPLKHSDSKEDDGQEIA

antigen B7-H3 (R&D) = target: T6, antigen B7-H3 (R&D); assay: ELISA on coated B7-H3
T6 construct: construct not described; also called B7-H3 protein; coated B7-H3 protein
T6 sequence (Q5ZPR3 whole entry, species assumed, looked up): T5 sequence (Q5ZPR3 1-534, species assumed, looked up)
Procedure: as §1

IgV domain of B7-H3 [6] = target: T3, IgV domain of B7-H3; assay: ELISA on B7-H3 domains, IgG1 antibody
Procedure: as §1

B1: P1G2 full-length IgG1 antibody (antibody, V domains shown)
VH: QVQLQQSGAEVKKPGSSVKVSCKASGGTFSSYAISWVRQAPGQGLEWMGRIIPILGIANYAQKFQGRVTITADKSTSTAYMELSSLRSEDTAVYYCAVNYYDSSGYYSDYWGQGTLVTVSS
VL: SYELTQPPSASGSPGQSVTISCTGTSSDVGGYNYVSWYQQHPGKAPRLMIYGVSQRPSGVPDRFSGSKSGNTASLTVSGLQAEDEADYYCSSYANNNYVFGTGTKVTVL
Kd [1]: 0.23 nM | koff [1]: 0.00167 s⁻¹ | kon [1]: 7.26e+06 M⁻¹ s⁻¹ | ELISA signal value [2]: 1.6 to 3 elisasignalvalue | ELISA signal value [3]: 0.6 to 1.5 elisasignalvalue | ELISA signal value (IgV domain of B7-H3 [4]): 0.3 to 0.5 elisasignalvalue | ELISA signal value (IgC domain of B7-H3): 0.3 to 0.5 elisasignalvalue

B4: P1E11 full-length IgG1 antibody (antibody, V domains shown)
VH: not shown
VL: EIVLTQSPLSLPVTLGQPASISCRSSQSLVHSDGNTYLNWFQQRPGQSPRRLIYKVSNRDSGVPDRFSGSGSGTDFTLKISRVEAEDVGFYYCMQGTHWPPGTFGQGTKLEIK
notes: also called biotin-P1E11
Kd [1]: 0.0248 nM | koff [1]: 7.76e-05 s⁻¹ | kon [1]: 3.13e+06 M⁻¹ s⁻¹ | binding result (IgV domain of B7-H3 [6]): no binding (tested: ELISA signal value 0.1~0.2) | ELISA signal value [3]: 1.6 to 3 elisasignalvalue | ELISA signal value (IgC domain of B7-H3): 0.6 to 1.5 elisasignalvalue

Now from value to binder:

Kd [1]: 2.4 nM | koff [1]: 5.9e-05 s⁻¹ | kon [1]: 42500 M⁻¹ s⁻¹ | EC50 (read off the curve) [5]: ~0.02 µg/mL | ELISA signal value [2]: 0.6 to 1.5 elisasignalvalue | ELISA signal value [3]: 0.3 to 0.5 elisasignalvalue | ELISA signal value (IgV domain of B7-H3 [4]): 0.3 to 0.5 elisasignalvalue | ELISA signal value (IgC domain of B7-H3): 0.3 to 0.5 elisasignalvalue
B2: P2E5 full-length IgG1 antibody (antibody, V domains shown)
VH: QVTLKESGGGLVQPGGSLRLSCAASGFTFSNSYMTWVRQAPGMGLEWVASMKPDGSVKHYVDSVKGRFTISRDNTKNSLDLQMNSLRAEDTAVYYCSSYDTRWGWFDPWGEGTLVTVSS
VL: QTVVTQEPSFSVSPGGTVTLTCGLNSGSVSTSYFPSWYQQTPGQAPRTLIYNTNTRSSGVPDRFSGSILGNKAALTITGAQADDESDYYCLLYMDSGPHWVFGGGTKLTVL
notes: also called biotin-P2E5

EC50 (read off the curve) (antigen B7-H3 (R&D)): ~0.1 µg/mL | ELISA signal value (IgV domain of B7-H3 [4]): 1.6 to 3 elisasignalvalue
B3: P3H6 full-length IgG1 antibody (antibody, V domains shown)
VH: QVQLVQSGAEVKKPGESLKISCKGSGYSFSNYWIGWVRQMPGKGLEWMGIIYPGDSDTRYSPSFQGQVTISADKSISTAYLQWSSLKASDTAMYYCARSRGYPTNYMDVWGRGTTVTVSS
VL: QAVLTQPPSVSGAPRQRVTISCSGSSSNIGNNIVSWYQHLPGKAPRLLIYRERQRPSGVPDRFSGSKSGTSASLAISGLRSEDEADYYCATWDDSLNSWVFGGGTKLTVL
